Experimental data as given in the supplement of paper PMC9112550, “Optimization of the antimicrobial peptide Bac7 by deep mutational scanning” (BMC Biology, 2022).

System: Escherichia coli TOP10
Test: shrunken log2 fold change of peptide-encoding DNA abundance (4.5 h post-induction vs induction); higher = less antimicrobial activity (less host growth inhibition)
Details: time post-induction: 4.5 h; library: site-saturation at positions 5, 18, 19, 20
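Also: peptides expressed intracellularly from a pBAD plasmid library in pooled LB shake-flask culture, induced with 0.3% L-arabinose, DNA abundance read by NGS, three biological replicates, DESeq2 with apeglm shrinkage.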

| Sequence | shrunken log2 fold change |
| --- | --- |
| RRIRNRPPRLPRPRPRPEAGPRP | -0.0775 |
| RRIRNRPPRLPRPRPRPTKGPRP | 0.0423 |
| RRIRQRPPRLPRPRPRPAAAPRP | 0.258 |
| RRIRQRPPRLPRPRPRPISRPRP | -0.0404 |
| RRIRGRPPRLPRPRPRPNACPRP | 0.212 |
| RRIRIRPPRLPRPRPRPAKIPRP | -0.176 |
| RRIRLRPPRLPRPRPRPEFAPRP | 0.342 |
| RRIRPRPPRLPRPRPRPFIQPRP | -0.671 |
| RRIRRRPPRLPRPRPRPINSPRP | -0.314 |
| RRIRTRPPRLPRPRPRPCCRPRP | 0.0338 |
| RRIRIRPPRLPRPRPRPYQNPRP | -1.1 |
| RRIRYRPPRLPRPRPRPRQGPRP | -0.074 |
| RRIRWRPPRLPRPRPRPNQYPRP | -0.113 |
| RRIRGRPPRLPRPRPRPQWAPRP | 0.498 |
| RRIRMRPPRLPRPRPRPYNVPRP | -0.3 |
| RRIRPRPPRLPRPRPRPMPYPRP | -0.41 |
| RRIRQRPPRLPRPRPRPVLNPRP | 2.89 |
| RRIRERPPRLPRPRPRPEGPPRP | 0.23 |
| RRIRIRPPRLPRPRPRPKVGPRP | 0.164 |
| RRIRKRPPRLPRPRPRPMSRPRP | 0.0843 |
| RRIRVRPPRLPRPRPRPWSLPRP | -0.0384 |
| RRIRYRPPRLPRPRPRPMIRPRP | -0.0021 |
| RRIRIRPPRLPRPRPRPYWDPRP | -0.143 |
| RRIRTRPPRLPRPRPRPDYFPRP | -0.153 |
| RRIRTRPPRLPRPRPRPTDFPRP | -0.405 |

| Sequence | shrunken log2 fold change |
| --- | --- |
| RRIRFRPPRLPRPRPRPKSNPRP | -0.358 |
| RRIRKRPPRLPRPRPRPGQKPRP | 0.212 |
| RRIRQRPPRLPRPRPRPQQNPRP | -0.0678 |
| RRIRKRPPRLPRPRPRPHDMPRP | 0.0328 |
| RRIRERPPRLPRPRPRPQHHPRP | -0.771 |
| RRIRFRPPRLPRPRPRPYVTPRP | -0.148 |
| RRIRRRPPRLPRPRPRPVESPRP | 0.126 |
| RRIRSRPPRLPRPRPRPDHIPRP | -0.119 |
| RRIRHRPPRLPRPRPRPLMYPRP | -0.711 |
| RRIRWRPPRLPRPRPRPRQSPRP | 0.236 |
| RRIRARPPRLPRPRPRPSDSPRP | -0.197 |
| RRIRDRPPRLPRPRPRPCLGPRP | -0.015 |
| RRIRPRPPRLPRPRPRPFSTPRP | -0.317 |
| RRIRNRPPRLPRPRPRPTQEPRP | 0.786 |
| RRIRPRPPRLPRPRPRPRLHPRP | 0.624 |
| RRIRNRPPRLPRPRPRPPSKPRP | -0.161 |
| RRIRYRPPRLPRPRPRPKVAPRP | -0.013 |
| RRIRHRPPRLPRPRPRPFNQPRP | -0.0213 |
| RRIRDRPPRLPRPRPRPMNDPRP | -0.126 |
| RRIRTRPPRLPRPRPRPSQLPRP | -0.453 |
| RRIRFRPPRLPRPRPRPKFFPRP | -0.00377 |
| RRIRRRPPRLPRPRPRPGHEPRP | 0.00414 |
| RRIRFRPPRLPRPRPRPNRAPRP | 0.091 |
| RRIRARPPRLPRPRPRPPTHPRP | 0.398 |
| RRIRERPPRLPRPRPRPPTRPRP | 0.254 |

| Sequence | shrunken log2 fold change |
| --- | --- |
| RRIRVRPPRLPRPRPRPCLAPRP | -0.0591 |
| RRIRCRPPRLPRPRPRPHYSPRP | -0.723 |
| RRIRCRPPRLPRPRPRPKGFPRP | 0.00848 |
| RRIRRRPPRLPRPRPRPWQPPRP | -0.108 |
| RRIRYRPPRLPRPRPRPSEIPRP | -0.271 |
| RRIRTRPPRLPRPRPRPQQTPRP | 0.0814 |
| RRIRPRPPRLPRPRPRPRGDPRP | 1.81 |
| RRIRERPPRLPRPRPRPNNPPRP | -0.736 |
| RRIRKRPPRLPRPRPRPEFYPRP | -0.0131 |
| RRIRERPPRLPRPRPRPCQFPRP | -0.131 |
| RRIRERPPRLPRPRPRPNAHPRP | 0.0249 |
| RRIRSRPPRLPRPRPRPRPCPRP | 0.137 |
| RRIRYRPPRLPRPRPRPPDGPRP | 0.176 |
| RRIRMRPPRLPRPRPRPRNDPRP | 0.193 |
| RRIRLRPPRLPRPRPRPFPHPRP | -0.0537 |
| RRIRIRPPRLPRPRPRPCQSPRP | -0.00131 |
| RRIRPRPPRLPRPRPRPKCAPRP | 0.0543 |
| RRIRYRPPRLPRPRPRPEHKPRP | -0.605 |
| RRIRSRPPRLPRPRPRPQQCPRP | -0.146 |
| RRIRNRPPRLPRPRPRPNNCPRP | -0.0864 |
| RRIRFRPPRLPRPRPRPTYSPRP | -0.209 |
| RRIRPRPPRLPRPRPRPIKGPRP | 0.0468 |
| RRIRIRPPRLPRPRPRPRPLPRP | 0.181 |
| RRIRTRPPRLPRPRPRPMNVPRP | 0.0707 |
| RRIRKRPPRLPRPRPRPNTYPRP | 0.0436 |

| Sequence | shrunken log2 fold change |
| --- | --- |
| RRIRRRPPRLPRPRPRPSVWPRP | 0.703 |
| RRIRWRPPRLPRPRPRPGSAPRP | 0.432 |
| RRIRNRPPRLPRPRPRPPLQPRP | 0.213 |
| RRIRYRPPRLPRPRPRPLWYPRP | -0.824 |
| RRIRHRPPRLPRPRPRPRFYPRP | -0.015 |
| RRIRGRPPRLPRPRPRPAFTPRP | 0.436 |
| RRIRFRPPRLPRPRPRPMCSPRP | -0.687 |
| RRIRGRPPRLPRPRPRPKPSPRP | 1.1 |
| RRIRMRPPRLPRPRPRPHFYPRP | -0.115 |
| RRIRLRPPRLPRPRPRPAQPPRP | 0.0855 |
| RRIRWRPPRLPRPRPRPAWKPRP | 0.143 |
| RRIRVRPPRLPRPRPRPLMYPRP | -0.564 |
| RRIRMRPPRLPRPRPRPAALPRP | 0.292 |
| RRIRMRPPRLPRPRPRPWFLPRP | 0.0242 |
| RRIRPRPPRLPRPRPRPGHWPRP | 0.123 |
| RRIRSRPPRLPRPRPRPYQLPRP | -0.149 |
| RRIRRRPPRLPRPRPRPKPQPRP | 0.403 |
| RRIRDRPPRLPRPRPRPWAFPRP | -0.01 |
| RRIRCRPPRLPRPRPRPCYIPRP | -0.0945 |
| RRIRVRPPRLPRPRPRPKYWPRP | -0.126 |
| RRIRYRPPRLPRPRPRPNRFPRP | -0.00943 |
| RRIRKRPPRLPRPRPRPYDIPRP | -0.119 |
| RRIRIRPPRLPRPRPRPGNMPRP | -0.105 |
| RRIRNRPPRLPRPRPRPDPFPRP | -0.582 |
| RRIRHRPPRLPRPRPRPDQTPRP | -0.0379 |

| Sequence | shrunken log2 fold change |
| --- | --- |
| RRIRCRPPRLPRPRPRPQATPRP | 0.122 |
| RRIRYRPPRLPRPRPRPFSVPRP | -0.313 |
| RRIRNRPPRLPRPRPRPTKCPRP | -0.16 |
| RRIRVRPPRLPRPRPRPACCPRP | 0.161 |
| RRIRLRPPRLPRPRPRPAYLPRP | -0.304 |
| RRIRHRPPRLPRPRPRPMLGPRP | -0.00277 |
| RRIRQRPPRLPRPRPRPTPHPRP | 0.397 |
| RRIRNRPPRLPRPRPRPIDLPRP | -0.0431 |
| RRIRHRPPRLPRPRPRPPGVPRP | 0.0725 |
| RRIRWRPPRLPRPRPRPFMTPRP | 0.183 |
| RRIRYRPPRLPRPRPRPIVLPRP | -0.213 |
| RRIRKRPPRLPRPRPRPHVTPRP | -0.0241 |
| RRIRDRPPRLPRPRPRPSNEPRP | -1.13 |
| RRIRRRPPRLPRPRPRPPINPRP | 0.0262 |
| RRIRLRPPRLPRPRPRPKAWPRP | -0.0115 |
| RRIRMRPPRLPRPRPRPNWDPRP | 0.0485 |
| RRIRIRPPRLPRPRPRPSYNPRP | -1.15 |
| RRIRKRPPRLPRPRPRPDFKPRP | -0.0323 |
| RRIRSRPPRLPRPRPRPCSLPRP | -0.484 |
| RRIRGRPPRLPRPRPRPLEHPRP | 0.594 |
| RRIRLRPPRLPRPRPRPLALPRP | -0.438 |
| RRIRDRPPRLPRPRPRPCFIPRP | -0.13 |
| RRIRKRPPRLPRPRPRPKITPRP | 0.0975 |
| RRIRERPPRLPRPRPRPVSLPRP | -0.013 |
| RRIRMRPPRLPRPRPRPTPKPRP | 0.107 |

| Sequence | shrunken log2 fold change |
| --- | --- |
| RRIRMRPPRLPRPRPRPCMAPRP | 0.59 |
| RRIRKRPPRLPRPRPRPRHYPRP | -0.0867 |
| RRIRKRPPRLPRPRPRPNGEPRP | 0.189 |
| RRIRWRPPRLPRPRPRPTCSPRP | 0.0967 |
| RRIRMRPPRLPRPRPRPGMLPRP | -0.0146 |
| RRIRVRPPRLPRPRPRPFVAPRP | -0.118 |
| RRIRKRPPRLPRPRPRPGAGPRP | 0.734 |
| RRIRHRPPRLPRPRPRPPHKPRP | 0.0336 |
| RRIRERPPRLPRPRPRPMLKPRP | -0.292 |
| RRIRNRPPRLPRPRPRPLRAPRP | 0.672 |
| RRIRFRPPRLPRPRPRPLEEPRP | -0.0138 |
| RRIRCRPPRLPRPRPRPRQNPRP | 0.226 |
| RRIRTRPPRLPRPRPRPPRQPRP | 0.52 |
| RRIRWRPPRLPRPRPRPEFLPRP | 0.374 |
| RRIRYRPPRLPRPRPRPYFSPRP | -1.16 |
| RRIRYRPPRLPRPRPRPGMIPRP | -0.252 |
| RRIRWRPPRLPRPRPRPQPFPRP | 0.133 |
| RRIRTRPPRLPRPRPRPICFPRP | -0.583 |
| RRIRMRPPRLPRPRPRPVRCPRP | 0.117 |
| RRIRCRPPRLPRPRPRPDDLPRP | -0.118 |
| RRIRCRPPRLPRPRPRPEEHPRP | -0.0578 |
| RRIRARPPRLPRPRPRPLQAPRP | 0.674 |
| RRIRARPPRLPRPRPRPDQKPRP | 0.442 |
| RRIRCRPPRLPRPRPRPAAWPRP | 0.252 |
| RRIRRRPPRLPRPRPRPMFRPRP | -0.0342 |
